Laboratory results as given in patent publication US20250144141A1.

Legend:
[1] = molecular target: HLA-A*02:01/MAGE-A4 complex (human) (UniProt P04439); experiment: SPR (Biacore T200), pMHC on streptavidin chip, 1:1 Langmuir fit
[2] = molecular target: HLA-A*02:01/MAGE-A4 complex (human) (UniProt P04439); experiment: SPR

Row | Kd [1] | Kd [2] | Binder
1 | 0.6 nM | 0.6 nM | M1302 (bispecific antibody, from a related filing, V domains shown) VH: EVQLLESGGGSVQPGGSLRLSCTVSGFSLSNYAMSWVRQAPGKGLEWIGIVSSGGTTYYASWAKGRFTISKDTSKNTVYLQMNSLRAEDTASYYCAKDLYYGPNTDYSAANLWGQGTSVTVSS VL: SYELTQPPSVSVSPGQTASITCTADTLSRSYASWYQQKPGQSPVLVIYRDTSRPSGIPERFSGSNSGNTATLTISGTQAMDEADYYCATRPSSGSNFQLFGGGTKLTVL
2 | 0.24 nM | 0.25 nM | M1041 (bispecific antibody, from a related filing, V domains shown) VH: ESQVLESGGGSVQPGGSLRLSCTVSGFSLSNYAMSWVRQAPGKGLEYIGIVSSGGTTYYASWAKGRFTISKDTSKNTVYLQMNSLRAEDTASYYCAKDLYYGPTTYSAFNLWGQGTSVTVSS VL: SYELTQPPSVSVSPGQTASITCTADTLSRSYASWYQQKPGQSPVLVIYRDTSRPSGIPERFSGSNSGNTATLTISGTQAMDEADYYCATRPSSGSNFQLFGGGTKLTVL
